From the Human Domainome abundance scans (Beltran et al. 2025)

B1: Metastasis-associated protein MTA3, residues 265 to 317; numbered along this chain, Q9BTC8 (parent)
chain: RDEMEEWSASEASLFEEALEKYGKDFNDIRQDFLPWKSLTSIIEYYYMWKTTD

Variants of: B1
Assay: abundance fitness (aPCA) (normalised: wild type 0, dead -1); higher = more abundant; growth selection in yeast, the domain comes from the species named
Settings: Homo sapiens

Abundance fitness: each site, then its substitutions
S13: N -0.261; V 0.066; L -0.045; M 0.128; T -0.212; W -0.689; Y -0.631
L14: I -0.444; A -0.396; Q -0.68; N -0.639; V -0.686; M -0.688; F -0.842; P -0.872; E -1; D -0.723; K -0.168; G -0.866; R -0.602; W -0.956; Y -0.353; H -0.945
E17: C -0.589; H -0.737; F -0.515; R -0.304; G -0.772; K -0.197; I -0.591; V -0.584; N -0.668; Y -0.39; A -0.598; D -0.477; Q -0.557; M -0.333; L -0.175; P -0.756; S -0.428
E20: I -0.267; T -0.262; D -0.283; C -0.682; V -0.213; Y -0.506; H -0.499; G -0.321; S -0.366; M -0.561; A 0.007; F -0.54; P -0.864; N -0.303; W -0.613; L -0.126
A18: G 0.438; M -0.643; C -0.32; E -0.439; P -0.912; R -0.913; N -0.863; D -1.2; T -1; F -0.902; S -0.988; L -0.627; Q -0.542; K -0.554; H -0.873; W -0.817; V -0.443; Y -0.703
Y22: K -0.72; S -0.53; E -0.856; R -0.2; G -0.625; A -0.687; I 0.078; Q -0.921; T -0.599; L -0.536; P -0.707; N -0.712; D -1.07; V 0.068; C 0.26; M -0.792; W -0.84; H -0.079
G23: C -0.368; A -0.536
E16: H -0.202; T -0.686; A -0.119; M -0.608; Q 0.023; P -0.621; F -0.422; D -0.572; R -0.427; W -0.504; K -0.359; G -0.907; S -0.324; I -0.693; Y -0.185; L -0.557; N -0.632; V -0.589; C -0.725
K21: T -0.443; W -0.801; R -0.381; H -0.674; S -0.745; F -0.504; I -0.418; M -0.763; Q -0.685; Y -0.571; N -0.984; V -0.444; E -0.867; C -0.683; G -0.842; D -0.579; L -0.483; P -0.804
F15: I -0.836; G -0.788; N -0.969; A -0.861; Y -1.15; R -0.485; D -0.578; P -0.918; E -0.695; S -0.543; Q -0.217; L -0.697; V -0.316; W -1.02; K -0.86; T -0.851; M -0.528; H 0.397
L19: W 0.043; H -0.525; K -0.838; Y 0.49; I 0.027; S -0.722; N -0.785; A -0.67; M -0.255; F 0.459; E -0.809; C -1.03; V 0.113; T -0.581; D -0.92; Q -0.34; R -0.607; G 0.002
